Values belong to the binder of their own block, whether it stands above or below them.
What was measured:
[1] = target: T1, FcγRIIa H (FcγRIIa, allotype with His at position 131), extracellular domain with C-terminal His tag (human, UniProt P12318 34-217); assay: SPR (Biacore T100), antibody captured on antigen-peptide chip, FcγRIIa H as analyte; response per captured antibody relative to GpH7-A5/GpH7-B3/GpL16-k0
T1 construct: extracellular domain; Soluble receptor expressed in FreeStyle293 cells and used as the analyte in Biacore; also called FcgRIIa H; FcγRIIa type H; not shown: His tag attached to the C terminus
T1 sequence (looked up): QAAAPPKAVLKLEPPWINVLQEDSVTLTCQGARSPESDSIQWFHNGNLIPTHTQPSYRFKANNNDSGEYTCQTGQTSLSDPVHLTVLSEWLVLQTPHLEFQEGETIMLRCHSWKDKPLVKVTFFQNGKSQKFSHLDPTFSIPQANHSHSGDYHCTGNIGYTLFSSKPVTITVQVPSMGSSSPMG
Experimental: (§1) Analysis of interaction between objective antibody and the FcγR was carried out using Biacore T100 (GE Healthcare). HBS-EP+ (GE Healthcare) was used as the running buffer, and the measurement temperature was set to 25° C. Chips produced by immobilizing the antigen peptide by the amine coupling method to a Series S Sencor Chip CM5 (GE Healthcare), or alternatively, chips produced by allowing preliminarily biotinylated antigen peptides to interact with and immobilize onto a Series S Sensor Chip SA (certified) (GE Healthcare) were used. Antibodies of interest were captured onto an antigen peptide-immobilized chip, and allowed to interact to each FcγR diluted with running buffer. To regenerate and repeatedly use the chip, the antibodies captured on the chip were washed off by reacting 10 mM glycine-HCl, pH 1.5.

[2] = target: T1, FcγRIIa H (FcγRIIa, allotype with His …); assay: SPR (Biacore T100), antibody captured on antigen-peptide chip, FcγRIIa H as analyte; response per captured antibody relative to GpH7-B3/GpL16-k0
Experimental: as §1

B1: GpH7-A5/GpH7-B3 variant T335_05P/GpL16-k0 (heterodimerized antibody, He Ab) (antibody, human IgG1, kappa)
heavy 1: not shown
heavy 2: not shown
light: DIVMTQSPLSLPVTPGEPASISCQASESLVHSNRNTYLHWYLQKPGQSPQLLIYKVSNRFSGVPDRFSGSGSGTDFTLKISRVEAEDVGVYYCSQNTHVPPTFGQGTKVEIERTVAAPSVFIFPPSDEQLKSGTASVVCLLNNFYPREAKVQWKVDNALQSGNSQESVTEQDSKDSTYSLSSTLTLSKADYEKHKVYACEVTHQGLSSPVTKSFNRGEC
notes: Anti-glypican-3 IgG1; substitution only in the GpH7-B3 chain; Position is EU numbering; also called He Ab T335P
- He/Con_2aH [1]: 108 relative binding activity (control heterodimerized antibody GpH7-A5/GpH7-B3/GpL16-k0 = 100)

B3: GpH7-B3 variant Y300_07I/GpL16-k0 (homodimerized antibody, Ho Ab) (antibody, human IgG1, kappa)
heavy: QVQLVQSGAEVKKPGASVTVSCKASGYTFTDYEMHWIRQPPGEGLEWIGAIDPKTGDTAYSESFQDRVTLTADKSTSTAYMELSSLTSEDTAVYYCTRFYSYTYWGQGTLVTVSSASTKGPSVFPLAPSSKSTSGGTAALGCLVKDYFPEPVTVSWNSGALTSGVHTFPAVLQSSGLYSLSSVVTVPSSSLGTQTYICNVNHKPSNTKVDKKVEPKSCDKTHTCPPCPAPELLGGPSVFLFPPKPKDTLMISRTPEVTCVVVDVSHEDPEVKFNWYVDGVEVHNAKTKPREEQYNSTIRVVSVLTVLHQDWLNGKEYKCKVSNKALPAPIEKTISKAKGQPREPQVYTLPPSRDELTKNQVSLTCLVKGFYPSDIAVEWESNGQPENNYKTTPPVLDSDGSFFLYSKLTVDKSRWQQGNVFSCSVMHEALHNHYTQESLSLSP
light: B1 light
notes: Anti-glypican-3 IgG1 (GpH7-B3 background); substitution in both H chains; Position is EU numbering; also called Ho Ab Y300I
- Ho/Con_2aH [2]: 122 relative binding activity (control homodimerized antibody GpH7-B3/GpL16-k0 = 100)

B4: GpH7-B3 variant T335_06M/GpL16-k0 (homodimerized antibody, Ho Ab) (antibody, human IgG1, kappa)
heavy: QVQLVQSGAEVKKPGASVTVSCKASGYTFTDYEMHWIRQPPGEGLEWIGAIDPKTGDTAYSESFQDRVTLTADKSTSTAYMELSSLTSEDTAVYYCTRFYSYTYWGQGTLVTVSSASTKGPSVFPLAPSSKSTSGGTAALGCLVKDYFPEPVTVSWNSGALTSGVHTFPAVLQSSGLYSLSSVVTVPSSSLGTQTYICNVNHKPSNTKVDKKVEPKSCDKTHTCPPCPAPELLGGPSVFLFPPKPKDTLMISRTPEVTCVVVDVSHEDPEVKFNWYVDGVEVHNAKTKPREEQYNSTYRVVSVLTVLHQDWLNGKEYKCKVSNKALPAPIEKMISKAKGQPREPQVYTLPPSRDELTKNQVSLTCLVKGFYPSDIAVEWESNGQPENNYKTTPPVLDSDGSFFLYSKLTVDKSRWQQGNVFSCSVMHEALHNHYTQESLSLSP
light: B1 light
notes: Anti-glypican-3 IgG1 (GpH7-B3 background); substitution in both H chains; Position is EU numbering; also called Ho Ab T335M
- Ho/Con_2aH [2]: 106 relative binding activity (control homodimerized antibody GpH7-B3/GpL16-k0 = 100)

B5: GpH7-B3 variant Y300_06M/GpL16-k0 (homodimerized antibody, Ho Ab) (antibody, human IgG1, kappa)
heavy: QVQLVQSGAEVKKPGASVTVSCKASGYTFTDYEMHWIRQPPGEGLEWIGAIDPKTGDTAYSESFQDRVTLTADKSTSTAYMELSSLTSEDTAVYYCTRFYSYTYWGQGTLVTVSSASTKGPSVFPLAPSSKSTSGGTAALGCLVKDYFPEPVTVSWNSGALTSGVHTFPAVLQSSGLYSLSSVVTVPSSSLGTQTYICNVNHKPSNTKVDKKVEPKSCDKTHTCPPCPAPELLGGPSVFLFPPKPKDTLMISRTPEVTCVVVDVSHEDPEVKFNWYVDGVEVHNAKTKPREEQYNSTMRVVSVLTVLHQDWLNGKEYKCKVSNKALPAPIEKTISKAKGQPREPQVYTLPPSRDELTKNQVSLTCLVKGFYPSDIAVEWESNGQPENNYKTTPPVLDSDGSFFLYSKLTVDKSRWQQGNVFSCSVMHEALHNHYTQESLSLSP
light: B1 light
notes: Anti-glypican-3 IgG1 (GpH7-B3 background); substitution in both H chains; Position is EU numbering; also called Ho Ab Y300M
- Ho/Con_2aH [2]: 106 relative binding activity (control homodimerized antibody GpH7-B3/GpL16-k0 = 100)

B7: GpH7-A5/GpH7-B3 variant T335_04F/GpL16-k0 (heterodimerized antibody, He Ab) (antibody, human IgG1, kappa)
heavy 1: not shown
heavy 2: not shown
light: B1 light
notes: Anti-glypican-3 IgG1; substitution only in the GpH7-B3 chain; Position is EU numbering; also called He Ab T335F
- He/Con_2aH [1]: 103 relative binding activity (control heterodimerized antibody GpH7-A5/GpH7-B3/GpL16-k0 = 100)

B10: GpH7-A5/GpH7-B3 variant Y300_07I/GpL16-k0 (heterodimerized antibody, He Ab) (antibody, human IgG1, kappa)
heavy 1: not shown
heavy 2: not shown
light: B1 light
notes: Anti-glypican-3 IgG1; substitution only in the GpH7-B3 chain; Position is EU numbering; also called He Ab Y300I
- He/Con_2aH [1]: 108 relative binding activity (control heterodimerized antibody GpH7-A5/GpH7-B3/GpL16-k0 = 100)

Further lines, results first:

- He/Con_2aH [1]: 108 relative binding activity (control heterodimerized antibody GpH7-A5/GpH7-B3/GpL16-k0 = 100)
B2: GpH7-A5/GpH7-B3 variant Y300_08L/GpL16-k0 (heterodimerized antibody, He Ab) (antibody, human IgG1, kappa)
heavy 1: not shown
heavy 2: not shown
light: B1 light
notes: Anti-glypican-3 IgG1; substitution only in the GpH7-B3 chain; Position is EU numbering; also called He Ab Y300L

- Ho/Con_2aH [2]: 104 relative binding activity (control homodimerized antibody GpH7-B3/GpL16-k0 = 100)
B6: GpH7-B3 variant T335_04F/GpL16-k0 (homodimerized antibody, Ho Ab) (antibody, human IgG1, kappa)
heavy: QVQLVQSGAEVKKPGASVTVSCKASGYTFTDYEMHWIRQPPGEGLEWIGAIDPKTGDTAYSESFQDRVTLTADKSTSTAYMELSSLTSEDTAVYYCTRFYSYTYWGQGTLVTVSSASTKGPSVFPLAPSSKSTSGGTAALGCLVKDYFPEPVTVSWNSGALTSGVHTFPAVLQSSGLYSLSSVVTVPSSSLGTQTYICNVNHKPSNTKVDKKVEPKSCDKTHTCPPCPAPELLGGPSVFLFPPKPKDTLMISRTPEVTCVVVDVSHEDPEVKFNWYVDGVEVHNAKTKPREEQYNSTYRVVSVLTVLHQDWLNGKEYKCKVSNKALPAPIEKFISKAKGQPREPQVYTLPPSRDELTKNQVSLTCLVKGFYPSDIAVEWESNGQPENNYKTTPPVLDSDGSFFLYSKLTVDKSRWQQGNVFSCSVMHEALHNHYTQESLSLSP
light: B1 light
notes: Anti-glypican-3 IgG1 (GpH7-B3 background); substitution in both H chains; Position is EU numbering; also called Ho Ab T335F

- He/Con_2aH [1]: 107 relative binding activity (control heterodimerized antibody GpH7-A5/GpH7-B3/GpL16-k0 = 100)
B8: GpH7-A5/GpH7-B3 variant T335_09D/GpL16-k0 (heterodimerized antibody, He Ab) (antibody, human IgG1, kappa)
heavy 1: not shown
heavy 2: not shown
light: B1 light
notes: Anti-glypican-3 IgG1; substitution only in the GpH7-B3 chain; Position is EU numbering; also called He Ab T335D

- Ho/Con_2aH [2]: 115 relative binding activity (control homodimerized antibody GpH7-B3/GpL16-k0 = 100)
B9: GpH7-B3 variant T335_05P/GpL16-k0 (homodimerized antibody, Ho Ab) (antibody, human IgG1, kappa)
heavy: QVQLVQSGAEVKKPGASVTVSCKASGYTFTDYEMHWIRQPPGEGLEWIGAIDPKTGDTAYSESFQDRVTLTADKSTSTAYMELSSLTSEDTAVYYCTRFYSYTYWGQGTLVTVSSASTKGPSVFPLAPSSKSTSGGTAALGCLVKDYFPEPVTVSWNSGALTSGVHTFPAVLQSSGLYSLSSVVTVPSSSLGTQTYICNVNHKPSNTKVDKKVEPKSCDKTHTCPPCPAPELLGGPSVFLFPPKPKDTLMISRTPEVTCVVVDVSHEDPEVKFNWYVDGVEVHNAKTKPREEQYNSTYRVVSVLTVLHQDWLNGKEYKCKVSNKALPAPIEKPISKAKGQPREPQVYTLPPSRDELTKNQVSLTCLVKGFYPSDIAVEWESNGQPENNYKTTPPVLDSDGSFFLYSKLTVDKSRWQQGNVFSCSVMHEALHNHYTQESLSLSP
light: B1 light
notes: Anti-glypican-3 IgG1 (GpH7-B3 background); substitution in both H chains; Position is EU numbering; also called Ho Ab T335P

From patent US20180155451A1 (published 2018)
